Measured values: the DeepSol protein solubility set

Test: soluble on expression in E. coli; label from the status in PepcDB or PDB records

Sequence	soluble on expression in E. coli
MGSDKIHHHHHHMAISERDIEHIFERLRSGVVPERGLEAFAVGIDKQRTEIHRQFQLAANSEGVFKFLRGGYGCGKTFMSRLAILDAQAQGFATSFVVVSDNDLHFYKFDDVYRKVVQELGTSSCPRGALSDIIDRWIARVEDALIAGGADENSDEFDTLVQQRIEEELASLTGGKAPEDMARVLRAIFTFKQKGEIAEASALLSWLAGSENVAATAKKAAGIKGDIASRDALDYLHGILEIVKAAGYKGLVIVIDEVETVLRMRHDSRGKSLNGIRQICDAADRYRGLLWIYTGTPEFFDTKRGVAGLEPLHDRIQFLTLAGFANPRQPQLELKPFDARRLKEVALKLREIFPTANRTGIVNKVTFEFIERLVAKVTAGFKGDVGVVPRQFLRQFVNILDLASENDEFDPMSAEGFEPTDLNEVELLIREGRTYFDEDPADIQGYAAVEF	not soluble
MGSDKIHHHHHHMAKFKIEIDSETCLGYKECGLCVSACEESIIVPDEKTGKVKVDKTREINCDGLGACLDVCPVGALKITSESGFSCGGHSGNPCPGSAVKSFNRSEQRSEMLQNKETESELLNWPVQLHLLNPNASYFKNADLIIAADCVPFAYPDFHNNLLKGKVLAIACPKLDDTKDYMLKIRQIVEKNNIKNVTVAIMTVPCCSGLYSLVNRALDGLDVNITKKVISLDGKLMD	not soluble
MGSDKIHHHHHHMAKGSKGFIVSIMGPVVDVKFPEEELPDIYNALEVVNPQTGQKVVLEVEQLIGDGVVRTVAMDSTDGLTKGLEVVDTGAPITAPVGKEVLGRILNVIGEPVDEAGEIKAKERWPIHRPAPELVEQSTEIEILETGIKVIDLLAPFPKGGKIGFFGGAGVGKTVLVMELIRNIAIEHKGFSVFAGVGERTREGNELWLEMQESGVLGNTVLVFGQMNEPPGARFRVALTALTIAEYFRDVEGRDVLLFIDNIFRFVQAGSEVSALLGRMPSAVGYQPTLATDMGELQERITSTRRGSITSVQAIYVPADDITDPAPATTFAHLDATVVLSRRIAELGLYPAVDPLDSSSKILDPAIVGREHYEVARGVQEVLQRYKDLQDIIAILGVEELSPEDKLVVHRARRIQRFLSQPFHVAERFTGRPGRYVPIEETIRGFKEILDGKLDDVPEQAFLMAGNIDEVKERAKEMRS	not soluble
MGSDKIHHHHHHMAKKHRKESLDALFREKVLLEMLKIAGVGMWTYSTETGRLRYIGFADTIHRHDELQYVDPADYLKLMNGEDLQTVTQFMADIHAGRPPQEGIRYKIHGNGEDFYLENHVVTCQPLGNGFYYLKGYVKNITAQVMEANRLCIEKERTEQADRLRSAFFAHVSRELRGPLNRIEELASQMVHAESVEEREECFHRIQENRRMAMKIADALHAVSQLPVSTYEPYHSPMQLCLIYRDLLMENGYSHNPEDGEQEENANFLSLLFS	not soluble
MGSDKIHHHHHHMAKLDDATLAQLFTEARSHNGWNPEPLPESVLRELYALTKFGPTAANGSPARFYFVTSAEAKERLAKLSSGSNGPKIMQAPCTVIIGYDLDFPQTLPKLFPHAPGAKDWFNDPVAKEWCALRNSSLQGGYFMIGARALGLDVGPMSGFDNAAVDAEFFAGTNIKSNFIVSIGHGTDEGLFPRNPRLDFDEAAKIL	not soluble
MGSDKIHHHHHHMAKNKTAYVCSECGQDFPRWQGQCNACGEWNTISEVRLAPAKSSAGSVAGYAGAVGGGSKKLSEVEEFEAKKLLTGIGELDRVLCGGLTTGSVNIISGDPGAGKTTILSDLVSRMSQLMPSLYCTAEESLSQFKNRVNRLRLDCNEENLYLMAETNVEAIIAELEAKQVKFAVIDSIQAVVTDLANGSPGSPSQVKGSAQALTQYCKQNNVTMFLVAHVNKNNETAGPQTLIHIVDCLTHLECNDGQVRTLRANKNRFGDVDTVGIFRMTERGMLSVDNPSEIFLSGSTTESPGAAITCIRKGNRNLLLEIQCLTTEAEGEFPQRVCVGLNMNRIKMLTGILRKHTRTKIYHDTYFNLVGGLKIDESETCIDLALVAALLSSLNEFVVPRTTCIMGELSLNGDVRPIDSGVPRVKEAVQHGFTEIFIPFRNYHKSMEGLGAKINPIKTIHELLELIC	not soluble
MGSDKIHHHHHHMAKTIKLILSDIDGTILDNNHQVDAHLRDTITELKKESIPFVLASARSPHGMFPIAQELNLGANPIACYNGALIVEGNKEHYQTLIEHGLSKADVKKIVALIKKQFPHISINFYSGGDWIVEEIDQWVQIEADITKESPDIRNFDTLLTDDAIPIHKLLLIANAQAIQEFFTYLKRVNFEDASFYLSKDNYLEVTSQSVSKENALLEIAKYYDISLSQTMAIGDNYNDIPMLKLAGLGVAMANAPQAVKNEADIETVSNNDNGVSKVIEDYVLI	not soluble
MGSDKIHHHHHHMAKTIRDESTASAYWAAVNTFCALKDVHVIADAPVGCYNLAGVAVMDYTDAIPYLENLTPTSLTEREISSSGSSQIVQETIEKLMGSGKQLILVSSAESEMIGSDHQHMLAMKYPSVRFFASDSLGENEWQGRDRALAWLFDQFDDGQPSQIEPGTVSIIGPTYGCFNSPADLAEVKRLVTGAGGRVAHVYPFESKAAEITKLKNSAAIVVMYREFGAALAEKLGRPVLYAPFGIEETDRFIGKIGRLCGTPEQATRFIAEEKRTTLSPVWDLWRGPQSEWFPTIRFGVVASKSYADGIKHVLGDELGMQCLFSLDSAEVDNNAVRKEIVQKQPQFLYGRMPDKIYLAEADAKSRFIPAGFPGPIVRRALGTPFMGHSGVVWLVQEIVNALYDTLFNFLPITRRQQAAAPTKPLKWTPEANAILDGIVRKAPFISQISFGRELKRKAENLAASRGADTVTPDILQQLG	not soluble
MGSDKIHHHHHHMAKTPANKNDQTKDGRFEEALWDAANKLRGSVESSEYKHIVLSLIFLKFISDTFEQQRQKLIDTGYEKHIDMVQAYTKDNVFYLPAESRWSFIQQNAKQEDIALKIDTALSTIEKTNQSLKGALPDNYFSRLGLTASKLAALIDVVNNIDTIGNPEEDTVGRVYEYFLGKFAATEGKGGGEFYTPKSVVNLIAEMVEPYQGKIYDPCCGSGGMFVQSIKFIESHHGNTKDVSIYGQEYTSTTYKLAKMNLAIRGISSNLGDVAADTFFKDQHEDLKADFIMANPPFNQKDWRASDELVDDPRWAGYPTPPTGNANYAWILHMISKLSEHGTAGFVLANGSMSTTTSGEGEIRQQIIENDLVDCMIALPGQLFYTTQIPVCLWFINKDKQAKSADSKARGLRNRSGETLFIDARAIGSMISRTNKELTKDDIEAIAKTYHAWRGEKEAGGYEAYTDEAGYCKSATLDDMKANDYVLTPGRYVGAAAIEDDGISFETKMLELSQTLYAQMQASEKLDATIRQNLEVLGYGE	not soluble
MGSDKIHHHHHHMAKVVISGYYGFDNLGDEAVLFSILKTLRELQIGIRIEVLSNNPSQTAEIYRVTAANRWKLGEVYHALKDSDMLISGGGSLLQDVTGWKSLVYYLGVIWLARFLGKPVFFYAQGIGPVNTPLGRLLMRWIVNKVNYITVRDESSRQDLAEMKISRPPVEVTADPVLGLEEKYVDKKIGQAILQEVGLDLSIERKMVGISVREWQGLGEYKEVVAELCDKLCRVGYQVVFLPMHSPDDLETSREVAAMMEQPAVVLEGHYSVVEMASLIANMDLLIGMRLHALILAAVMHVPPVAISYDPKIDRFMGLLGKTAATPVDRPQFAELWQAVEEIIYEPWQVREELMQQVEPLRQRAQASAVLGLKVLEKSLHNGPAAKYL	not soluble
MGSDKIHHHHHHMALVKCQSLNEIPMTATNHMDTSVQHVDIAIVGGAMAGATLALALARLSLSAARPLSIALIEAHLPDKQHPGFDARSIAIAHGSIFELSRLGLWPKLAHLGTAIENIHVSDRGHFGMTELNAAQFHLDALGQVVELERVGQVLFNELNKSEVKLYCPAKLAQVEPAVEGHTLVLDTGKRLKAKLVVAADGLQSKVRSSFDLPVTQVAFEQTAIIANIQTDKPHQHLAYERFTQTGPLALLPMADSQGKPRLSLVWALDDARAKQMQTAPKAEFLAALQQAFGYRAGTFIDVSARHAYPLNLSYMPRPIHHRCVFIGNAAQTLHPIAGQGFNLGLRDVVSLLEVLKTALDQGDDIGSAAVTHAYLNAREHDRNSTIRNIEFLVRGFSNQYWPMALGRNLGLRLLSWFPPLKTPVAQKAMGWK	not soluble
MGSDKIHHHHHHMAMTTEFANEITDVAKAIYEYAELGSSEYKSSSYLVEAFKRHGFQVDFPYLGMKTAFKARYFNGKPMVGLLAEYDALPNGHSCGHDLIAAWAFGTAIRLKDEFGISVTVFGTPSEEGIGEYAGSKAKFAQSGAFSDVDYVIGMHPDDRWAVGSTSLADLTIEAQFIGKSSHLLSPDYGINALDPLVESYVALSNFRRSVPNSKYPVIGMIVKEGGRASNVIPDKASMEIDIRAKKKADLAGFVDQIERILKMEGEMHYCKLNINEVTPIYDEYKSNRVIDSLLEEECQKHAVNPFNVDRSGEEPMGSTDEANVSQVIPTGHLDVKIVDPGIPAHTDEFRIAADPSRSGKTLLKAIDITVETIKTIWQDKKFMNKIKEEFKK	not soluble
MGSDKIHHHHHHMANFAYEVFSTVVAQHTFYQAAATLNVTPSAVSHSINQLEKELGFPLFIRNRSGVELTSDGRQVLPYVQEILNTESNLRQVADNIQGLHSGSVRIGGFSSVCINWLPRIIREFNHKYPDIKISVMQGNFNEITNWAKIGTIDIGFTSMPVNENLLVHSLINDPIYCVTPADFIPENGEFITTDDVADKNFILQQSDYDRDTKLALDHYHVTNNFLRFSIDDQSIISMVESGLGMGILPQLALRKLTGDVNTFSFAEPYNREIALVANKTQAAAPSTAIMIRAIKQFLTKEYPDQMLWQ	not soluble
MGSDKIHHHHHHMANSIPSGGNAFALPFAGSRHQFISATCTPDTFSDCLSQSLPPSSNEQAPLGVLRLVVAVSNQKQIGTVLEQLTKDFQALLSRAEVVVQPPFSGQVQISAWLVDTAAIADAPAVIGSPAALQWLFSASNAHALDDTQVSPAFSRQFYDGLESAHAQGHMPDDLLRTWIYIGGITQGPHDETRYQRVNAARQDAFREVSIGMGALCSPFPASTGIGTHGSSLTLGMLSCKIRSGMRVVALENRRQTSAFQYPKEESLIAPLFSRAVAILGDAQAMVFVSGTASIIGAKSVHVGNIEQQTRQTLENINNLLSARLLSDYDCYPATSGLESIVSYTVYIKRREDITVVRAVCAALLPERAVATFVQADVCRTELLVEIEAVAVMPE	not soluble
MGSDKIHHHHHHMARLGVDFGTSNTAAGLVQAGHPRVLPLEPGAQTLPTAVFIDFAARRYVYGTDAARAMMDGQEGRFLRGLKSILGTPLAREPRMFLNERLTLIEVIARFLAEIRTRAERLSGERFDRALSGRPVHFHSASAERDAQACTDLHDAYLMAGFSEVCFLPEPEAAALAVAGQGRMLIVDIGGGTSDFTLCDRRGTTTRMLASRGLRIGGTDFDRVLSLDHAMPLLGYEAQIGAELGEASHSAPRALFHDLASWEKIAFVYDPATLREVRRWVRLAEQPRLFERLAEVLESHLGHDVAYAVEAGKIAANGAAAGRIALDIVERGLGADLGNAAMQAALAGFADEIATCAMQTVRDAGVGPDSVDQVVFVGGSSLMGVIRAALARVLPGAEQQDSEVFTAVVHGLALASEDQ	not soluble
MGSDKIHHHHHHMASFPELPALRRLATLGRSWGLLSDFKYEQTRPDIFYGNLALDTSSLVAALSEDISGAGLNDLKVLDVGGGPGYFAEAFETLGATYFSVEPDVGEMSAAGIDVHGSVRGSGLDLPFLPDSFDVVYSSNVAEHVSAPWELGEEMLRVTRSGGLAILSYTIWLGPFGGHETGLWEHYVGGEFARDRYTKKHGHPPKNVFGESLFNVSCREGLEWGASVGNAELVAAFPRYHPYWVWWMVKVPVLREFAVSNLVLVFKKH	not soluble
MGSDKIHHHHHHMATEAQVLEALQATMSAAYTRGLSAAKPQWNMIATEVPSAGAANFYGWLKDLPGIVEWTGARQLANLGKHGYSIENKTFESSISISRDNVDDDQIGQYSVIAQNYGDQVAYFPDTLAYPLLKAGFTTLCYDGQNFFDTDHPLATTPATTFSNVIGDPATDTGEPWFLIDDTKVLKPIVFQNRRPFVFKNMNPNEEYTWFNNKYAAGVDGRCNVGFSFPQLAIGSKAALTEANYAAAKKLLLKMKKVDGTPIGTRATKLVVGPDNEAAAKKLISRMLIEGGDTNIYYNDVEIVVSPLVTA	not soluble
